± gives the standard deviation of the averaged measurements.
Test: total protein half-life in vivo (active degradation + dilution); higher = more stable protein
[1] = E. coli NCM3722 delta-clpP delta-lon delta-hslV, growth: N-lim chemostat, doubling time 6 h
[2] = E. coli NCM3722 delta-smpB, growth: N-lim chemostat, doubling time 6 h
[3] = wild type E. coli NCM3722, growth: C-lim chemostat, doubling time 3 h
[4] = wild type E. coli NCM3722, growth: C-lim chemostat, doubling time 6 h
[5] = wild type E. coli NCM3722, growth: C-lim chemostat, doubling time 12 h
[6] = wild type E. coli NCM3722, growth: P-lim chemostat, doubling time 6 h
[7] = wild type E. coli NCM3722, growth: P-lim chemostat, doubling time 12 h
[8] = E. coli NCM3722 delta-clpP, growth: N-lim chemostat, doubling time 6 h
[9] = E. coli NCM3722 delta-hslV, growth: N-lim chemostat, doubling time 6 h
[10] = E. coli NCM3722 delta-lon, growth: N-lim chemostat, doubling time 6 h
[11] = wild type E. coli NCM3722, growth: N-lim chemostat, doubling time 6 h
[12] = wild type E. coli NCM3722, growth: N-lim chemostat, doubling time 12 h

Sequence | total protein half-life in vivo [1] [h] | total protein half-life in vivo [2] [h] | total protein half-life in vivo [3] [h] | total protein half-life in vivo [4] [h] | total protein half-life in vivo [5] [h] | total protein half-life in vivo [6] [h] | total protein half-life in vivo [7] [h] | total protein half-life in vivo [8] [h] | total protein half-life in vivo [9] [h] | total protein half-life in vivo [10] [h] | total protein half-life in vivo [11] [h] | total protein half-life in vivo [12] [h]
MAISIKGVNTGVIRKSNNFIALALKIKEPRNKESLFFMSVMELRDLLIALESRLHQKHKLDAAAHLQYEQARDKVIKKMAENIPEILVDELKNADINRRVNTLELTDNQGENLTFVLTLHDGSKCELVVNELQIEMLARAIIHAINNAEMRELALRITSLLDFLPLYDVDCQDNGNLEYDTYSQPEWKHNLFDHYLAVLYRFKDESGKEQFSGAVVKTREATPGKEIEAITRRMLDFSPRLKKLAGVPCQVYVRTVAANNAQPLTQDQCLRALHHLRVQSTSKTAPQAK | 5.19 ± 0.073 | 2.7 ± 0.24 | 2.52 ± 0.14 | 4.83 ± 1.6 |  |  |  |  |  |  |  | 
MSILYEERLDGALPDVDRTSVLMALREHVPGLEILHTDEEIIPYECDGLSAYRTRPLLVVLPKQMEQVTAILAVCHRLRVPVVTRGAGTGLSGGALPLEKGVLLVMARFKEILDINPVGRRARVQPGVRNLAISQAVAPHNLYYAPDPSSQIACSIGGNVAENAGGVHCLKYGLTVHNLLKIEVQTLDGEALTLGSDALDSPGFDLLALFTGSEGMLGVTTEVTVKLLPKPPVARVLLASFDSVEKAGLAVGDIIANGIIPGGLEMMDNLSIRAAEDFIHAGYPVDAEAILLCELDGVESDVQEDCERVNDILLKAGATDVRLAQDEAERVRFWAGRKNAFPAVGRISPDYYCMDGTIPRRALPGVLEGIARLSQQYDLRVANVFHAGDGNMHPLILFDANEPGEFARAEELGGKILELCVEVGGSISGEHGIGREKINQMCAQFNSDEITTFHAVKAAFDPDGLLNPGKNIPTLHRCAEFGAMHVHHGHLPFPELERF [P0AEP9] |  |  | 1.69 ± 0.022 | 3.62 ± 0.18 | 5.4 ± 0.53 | 2.38 ± 0.24 | 5.7 ± 3.1 |  |  |  |  | 
MKIELTVNGLKIQAQYQNEEIENVHKPLLHMLAALQTVNPQRRTVVFLCAPPGTGKSTLTTFWEYLAQQDPELPAIQTLPMDGFHHYNSWLDAHQLRPFKGAPETFDVAKLTENLRQVVEGDCTWPQYDRQKHDPVEDALHVTAPLVIVEGNWLLLDDEKWLELASFCDFSIFIHAPAQILRERLISRKIAGGLTRQVAEAFYARTDGPNVERVLMNSRQANLIVEMTEEGRYHFTS | 5.96 |  |  |  |  |  |  | 1.31 |  |  |  | 
MQNTTHDNVILELTVRNHPGVMTHVCGLFARRAFNVEGILCLPIQDSDKSHIWLLVNDDQRLEQMISQIDKLEDVVKVQRNQSDPTMFNKIAVFFQ [P0ADF8] | 5.25 ± 2.1 | 1.62 ± 0.038 | 2.47 ± 0.37 | 3.63 ± 0.07 | 4.56 ± 0.67 | 2.71 ± 0.66 | 5.91 ± 0.75 | 1.6 ± 0.35 | 1.74 ± 0.22 | 2.35 | 1.447 ± 0.0047 | 2.29 ± 0.29
MKLKNTLLASALLSAMAFSVNAATELTPEQAAAVKPFDRVVVTGRFNAIGEAVKAVSRRADKEGAASFYVVDTSDFGNSGNWRVVADLYKADAEKAEETSNRVINGVVELPKDQAVLIEPFDTVTVQGFYRSQPEVNDAITKAAKAKGAYSFYIVRQIDANQGGNQRITAFIYKKDAKKRIVQSPDVIPADSEAGRAALAAGGEAAKKVEIPGVATTASPSSEVGRFFETQSSKGGRYTVTLPDGTKVEELNKATAAMMVPFDSIKFSGNYGNMTEVSYQVAKRAAKKGAKYYHITRQWQERGNNLTVSADLYK | 5.73 ± 0.21 | 5.116 ± 0.0047 | 3.13 ± 0.059 | 5.73 ± 0.11 | 10.5 ± 0.55 | 5.61 ± 0.079 | 11.1 ± 0.13 | 5.99 ± 0.45 | 5.8 ± 0.2 | 5.46 ± 0.12 | 5.47 ± 0.23 | 9.68 ± 0.69
MNVLRSGIVTMLLLAAFSVQAACTWPAWEQFKKDYISQEGRVIDPSDARKITTSEGQSYGMFSALAANDRAAFDNILDWTQNNLAQGSLKERLPAWLWGKKENSKWEVLDSNSASDGDVWMAWSLLEAGRLWKEQRYTDIGSALLKRIAREEVVTVPGLGSMLLPGKVGFAEDNSWRFNPSYLPPTLAQYFTRFGAPWTTLRETNQRLLLETAPKGFSPDWVRYEKDKGWQLKAEKTLISSYDAIRVYMWVGMMPDSDPQKARMLNRFKPMATFTEKNGYPPEKVDVATGKAQGKGPVGFSAAMLPFLQNRDAQAVQRQRVADNFPGSDAYYNYVLTLFGQGWDQHRFRFSTKGELLPDWGQECANSH | 5.88 ± 0.14 | 5.684 ± 0.013 | 3.19 ± 0.12 | 6.41 ± 0.42 |  | 5.86 ± 0.12 | 12.7 ± 0.61 | 6.89 ± 0.16 | 6.78 ± 0.68 | 6.5 ± 0.64 | 6.48 ± 1.2 | 14 ± 0.56
MQKVVLATGNVGKVRELASLLSDFGLDIVAQTDLGVDSAEETGLTFIENAILKARHAAKVTALPAIADDSGLAVDVLGGAPGIYSARYSGEDATDQKNLQKLLETMKDVPDDQRQARFHCVLVYLRHAEDPTPLVCHGSWPGVITREPAGTGGFGYDPIFFVPSEGKTAAELTREEKSAISHRGQALKLLLDALRNG | 4.93 ± 0.34 | 3.951 ± 0.0058 | 3.16 ± 0.17 | 5.1 ± 0.19 | 8.51 ± 0.84 | 5.14 ± 0.35 | 10.7 ± 0.027 | 4.228 ± 0.016 | 4.12 ± 0.13 | 4.93 ± 0.076 | 4 ± 0.17 | 6.87 ± 0.21
MLHPRARTMLLLSLPAVAIGIASSLILIVVMKIASVLQNLLWQRLPGTLGIAQDSPLWIIGVLTLTGIAVGLVIRFSQGHAGPDPACEPLIGAPVPPSALPGLIVALILGLAGGVSLGPEHPIMTVNIALAVAIGARLLPRVNRMEWTILASAGTIGALFGTPVAAALIFSQTLNGSSEVPLWDRLFAPLMAAAAGALTTGLFFHPHFSLPIAHYGQMEMTDILSGAIVAAIAIAAGMVAVWCLPRLHAMMHQMKNPVLVLGIGGFILGILGVIGGPVSLFKGLDEMQQMVANQAFSTSDYFLLAVIKLAALVVAAASGFRGGRIFPAVFVGVALGLMLHEHVPAVPAAITVSCAILGIVLVVTRDGWLSLFMAAVVVPNTTLLPLLCIVMLPAWLLLAGKPMMMVNRPKQQPPHDNV |  |  |  |  | 11.1 |  | > 16 | 6.28 | 7.8 | 5.98 | 6.78 | 12.5

Reference: the supplement of paper PMC11246515
